Source: patent US10660951

Tests used:
[1] = molecular target: envelope of HIV-1 isolate CNE5 on pseudotyped virus (HIV-1 CNE5); experiment: cell-based or functional assay
[2] = molecular target: envelope glycoprotein of HIV-1 HXB2 on pseudotyped virus (HIV-1 HXB2) (UniProt P04578); experiment: cell-based or functional assay

b12 (antibody)
ND50, neutralization of pseudotyped virus (luciferase) [1]: 23.1 µg/mL | ND50, neutralization of pseudotyped virus (luciferase) [2]: 0.119 µg/mL
